Test results taken from PMC9408429, “Thermodynamic Swings: How Ideal Complex of Cas9–RNA/DNA Forms”.

Target: Cas9 (UniProt Q99ZW2 1-1368)
Test: ITC; RNA 62.5 uM into Cas9 5 uM; n = 2.10; triplicate; dH -399.10 kcal/mol; ITC, 20 mM HEPES pH 7.6, 150 mM NaCl, 25 °C, 200 rpm; no Mg2+ listed
Conditions: protein: recombinant; intramolecular helices; dimer possible

Chain of Cas9 (Q99ZW2 whole entry): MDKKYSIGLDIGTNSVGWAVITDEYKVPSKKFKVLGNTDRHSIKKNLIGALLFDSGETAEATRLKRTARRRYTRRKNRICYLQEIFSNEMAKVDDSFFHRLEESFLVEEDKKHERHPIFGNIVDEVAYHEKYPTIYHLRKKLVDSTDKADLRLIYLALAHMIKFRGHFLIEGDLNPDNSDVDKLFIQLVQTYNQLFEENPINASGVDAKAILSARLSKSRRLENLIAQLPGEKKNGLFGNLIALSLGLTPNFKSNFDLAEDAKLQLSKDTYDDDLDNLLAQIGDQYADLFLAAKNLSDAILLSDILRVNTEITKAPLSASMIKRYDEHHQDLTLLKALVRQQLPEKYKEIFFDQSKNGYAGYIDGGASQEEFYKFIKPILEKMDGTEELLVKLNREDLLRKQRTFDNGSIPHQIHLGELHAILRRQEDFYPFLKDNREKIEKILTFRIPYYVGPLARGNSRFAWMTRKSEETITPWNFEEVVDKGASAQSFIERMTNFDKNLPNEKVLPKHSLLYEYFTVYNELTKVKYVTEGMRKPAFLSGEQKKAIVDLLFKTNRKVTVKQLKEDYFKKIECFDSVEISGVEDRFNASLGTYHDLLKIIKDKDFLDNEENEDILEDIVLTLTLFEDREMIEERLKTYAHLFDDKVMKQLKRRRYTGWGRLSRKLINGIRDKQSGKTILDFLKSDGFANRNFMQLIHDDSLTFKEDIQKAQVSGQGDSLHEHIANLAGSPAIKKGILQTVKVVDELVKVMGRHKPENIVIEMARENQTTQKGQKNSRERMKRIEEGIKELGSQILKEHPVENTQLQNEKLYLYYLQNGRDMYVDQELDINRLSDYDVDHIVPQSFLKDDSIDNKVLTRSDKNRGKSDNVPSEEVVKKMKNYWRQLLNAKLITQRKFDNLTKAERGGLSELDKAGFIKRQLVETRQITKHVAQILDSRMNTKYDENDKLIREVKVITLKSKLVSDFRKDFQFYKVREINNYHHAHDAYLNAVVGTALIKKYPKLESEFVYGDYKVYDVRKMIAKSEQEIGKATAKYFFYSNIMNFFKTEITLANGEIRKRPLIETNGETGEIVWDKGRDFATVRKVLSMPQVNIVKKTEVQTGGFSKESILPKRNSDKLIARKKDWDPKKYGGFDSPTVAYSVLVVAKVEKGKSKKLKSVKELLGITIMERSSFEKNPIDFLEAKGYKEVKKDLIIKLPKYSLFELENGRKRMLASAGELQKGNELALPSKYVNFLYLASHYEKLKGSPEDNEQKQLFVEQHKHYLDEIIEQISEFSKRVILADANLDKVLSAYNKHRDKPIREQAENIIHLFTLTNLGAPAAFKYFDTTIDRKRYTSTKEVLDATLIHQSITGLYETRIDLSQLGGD

B1: RNA (sgRNA) (structured_RNA)
RNA: GGUUGGACAUGCUCGACAUUCGUUUUAGAGCUAGAAAUAGCAAGUUAAAAUAAGGCUAGUCCGUUAUCAACUUGAAAAAGUGGCACCGAGUCGGUGCUUUUUU
Kd: 2210 nM
